Measured values reported in US20140213531A1 (POLYPHOR, published 2014).
Bridges are numbered along the chain shown (N, C = ends). [ ]: non-standard residue; d: D form. AlloThr = allo threonine

T1: CathepsinG, from human neutrophils (human, UniProt P08311 21-244)
T1 sequence (looked up): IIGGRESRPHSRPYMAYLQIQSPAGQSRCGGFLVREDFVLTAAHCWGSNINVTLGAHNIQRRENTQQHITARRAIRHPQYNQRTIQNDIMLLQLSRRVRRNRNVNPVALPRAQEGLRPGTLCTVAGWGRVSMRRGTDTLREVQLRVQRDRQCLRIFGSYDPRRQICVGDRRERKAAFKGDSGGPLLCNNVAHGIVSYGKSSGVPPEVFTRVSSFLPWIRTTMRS

T2: Chymase, from human skin (human, UniProt P23946 22-247)
T2 sequence (looked up): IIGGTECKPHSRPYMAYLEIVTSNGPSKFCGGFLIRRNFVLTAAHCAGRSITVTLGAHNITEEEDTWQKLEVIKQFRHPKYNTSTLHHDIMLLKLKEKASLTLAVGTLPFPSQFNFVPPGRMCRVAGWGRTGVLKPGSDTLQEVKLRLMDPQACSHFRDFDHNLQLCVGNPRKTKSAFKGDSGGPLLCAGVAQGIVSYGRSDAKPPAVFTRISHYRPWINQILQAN

T3: Elastase from human neutrophils (human, UniProt P08246 30-247, limits assumed)
T3 sequence (looked up): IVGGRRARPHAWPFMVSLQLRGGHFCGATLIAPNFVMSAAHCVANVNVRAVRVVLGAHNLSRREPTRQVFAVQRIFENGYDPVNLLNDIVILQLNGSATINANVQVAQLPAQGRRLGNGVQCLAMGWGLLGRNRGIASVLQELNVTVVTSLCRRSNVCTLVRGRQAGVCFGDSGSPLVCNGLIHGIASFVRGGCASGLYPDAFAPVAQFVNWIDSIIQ

B1: Example 60 (peptide)
peptide: FCTXSDPPICY
HELM: PEPTIDE1{F.C.T.[Nle].S.D.P.P.I.C.Y.[dP].P}$PEPTIDE1,PEPTIDE1,2:R3-10:R3|PEPTIDE1,PEPTIDE1,1:R1-13:R2$$$V2.0
SMILES: CCCC[C@@H]1NC(=O)[C@H]([C@@H](C)O)NC(=O)[C@@H]2CSSC[C@H](NC(=O)[C@H]([C@@H](C)CC)NC(=O)[C@@H]3CCCN3C(=O)[C@@H]3CCCN3C(=O)[C@H](CC(=O)O)NC(=O)[C@H](CO)NC1=O)C(=O)N[C@@H](Cc1ccc(O)cc1)C(=O)N1CCC[C@@H]1C(=O)N1CCC[C@H]1C(=O)N[C@@H](Cc1ccccc1)C(=O)N2
B2: Example 84 (peptide)
peptide: XCTASXPPQCY
HELM: PEPTIDE1{[Nle].C.T.A.S.[O=C([C@@H](N[*:1])C1CCCCC1)[*:2]].P.P.Q.C.Y.[dP].P}$PEPTIDE1,PEPTIDE1,2:R3-10:R3|PEPTIDE1,PEPTIDE1,1:R1-13:R2$$$V2.0
SMILES: CCCC[C@@H]1NC(=O)[C@@H]2CCCN2C(=O)[C@H]2CCCN2C(=O)[C@H](Cc2ccc(O)cc2)NC(=O)[C@@H]2CSSC[C@H](NC1=O)C(=O)N[C@@H]([C@@H](C)O)C(=O)N[C@@H](C)C(=O)N[C@@H](CO)C(=O)N[C@@H](C1CCCCC1)C(=O)N1CCC[C@H]1C(=O)N1CCC[C@H]1C(=O)N[C@@H](CCC(N)=O)C(=O)N2
B3: Example 1 (peptide)
peptide: FCTKSEPPICT
HELM: PEPTIDE1{F.C.T.K.S.E.P.P.I.C.T.[dP].P}$PEPTIDE1,PEPTIDE1,2:R3-10:R3|PEPTIDE1,PEPTIDE1,1:R1-13:R2$$$V2.0
SMILES: CC[C@H](C)[C@@H]1NC(=O)[C@@H]2CCCN2C(=O)[C@@H]2CCCN2C(=O)[C@H](CCC(=O)O)NC(=O)[C@H](CO)NC(=O)[C@H](CCCCN)NC(=O)[C@H]([C@@H](C)O)NC(=O)[C@@H]2CSSC[C@H](NC1=O)C(=O)N[C@@H]([C@@H](C)O)C(=O)N1CCC[C@@H]1C(=O)N1CCC[C@H]1C(=O)N[C@@H](Cc1ccccc1)C(=O)N2
B4: Example 82 (peptide)
peptide: XCTASXPPQCY
HELM: PEPTIDE1{[Nle].C.T.A.S.[Cha].P.P.Q.C.Y.[dP].P}$PEPTIDE1,PEPTIDE1,2:R3-10:R3|PEPTIDE1,PEPTIDE1,1:R1-13:R2$$$V2.0
SMILES: CCCC[C@@H]1NC(=O)[C@@H]2CCCN2C(=O)[C@H]2CCCN2C(=O)[C@H](Cc2ccc(O)cc2)NC(=O)[C@@H]2CSSC[C@H](NC1=O)C(=O)N[C@@H]([C@@H](C)O)C(=O)N[C@@H](C)C(=O)N[C@@H](CO)C(=O)N[C@@H](CC1CCCCC1)C(=O)N1CCC[C@H]1C(=O)N1CCC[C@H]1C(=O)N[C@@H](CCC(N)=O)C(=O)N2
B5: Example 2 (peptide)
peptide: FCTKSDPPICD
HELM: PEPTIDE1{F.C.T.K.S.D.P.P.I.C.D.[dP].P}$PEPTIDE1,PEPTIDE1,2:R3-10:R3|PEPTIDE1,PEPTIDE1,1:R1-13:R2$$$V2.0
SMILES: CC[C@H](C)[C@@H]1NC(=O)[C@@H]2CCCN2C(=O)[C@@H]2CCCN2C(=O)[C@H](CC(=O)O)NC(=O)[C@H](CO)NC(=O)[C@H](CCCCN)NC(=O)[C@H]([C@@H](C)O)NC(=O)[C@@H]2CSSC[C@H](NC1=O)C(=O)N[C@@H](CC(=O)O)C(=O)N1CCC[C@@H]1C(=O)N1CCC[C@H]1C(=O)N[C@@H](Cc1ccccc1)C(=O)N2
B6: Example 26 (peptide)
peptide: YCTKSDPPICY
HELM: PEPTIDE1{Y.C.T.K.S.D.P.P.I.C.Y.[dP].P}$PEPTIDE1,PEPTIDE1,2:R3-10:R3|PEPTIDE1,PEPTIDE1,1:R1-13:R2$$$V2.0
SMILES: CC[C@H](C)[C@@H]1NC(=O)[C@@H]2CCCN2C(=O)[C@@H]2CCCN2C(=O)[C@H](CC(=O)O)NC(=O)[C@H](CO)NC(=O)[C@H](CCCCN)NC(=O)[C@H]([C@@H](C)O)NC(=O)[C@@H]2CSSC[C@H](NC1=O)C(=O)N[C@@H](Cc1ccc(O)cc1)C(=O)N1CCC[C@@H]1C(=O)N1CCC[C@H]1C(=O)N[C@@H](Cc1ccc(O)cc1)C(=O)N2

Legend:
Experiment in all cases: cell-based or functional assay
[1] = biological target: T1, CathepsinG, from human neutrophils
[2] = biological target: T2, Chymase, from human skin
[3] = biological target: Coagulation Factor Xa, from human plasma (human, UniProt P00742 41-488, limits assumed)
[4] = biological target: Urokinase from human urine (human, UniProt P00749 21-431, limits assumed)
[5] = biological target: Thrombin, from Human Plasma, high activity (human, UniProt P00734 328-622)
[6] = biological target: Trypsin, Iodination grade, from human pancreas (human, UniProt P07477 24-247)
[7] = biological target: Chymotrypsin, from human pancreas (human, UniProt P17538 19-263)
[8] = biological target: T3, Elastase from human neutrophils
[9] = biological target: Tryptase, from human lung (human, UniProt Q15661 31-275, limits assumed)
Chain of Tryptase, from human lung (Q15661 31-275 limits assumed): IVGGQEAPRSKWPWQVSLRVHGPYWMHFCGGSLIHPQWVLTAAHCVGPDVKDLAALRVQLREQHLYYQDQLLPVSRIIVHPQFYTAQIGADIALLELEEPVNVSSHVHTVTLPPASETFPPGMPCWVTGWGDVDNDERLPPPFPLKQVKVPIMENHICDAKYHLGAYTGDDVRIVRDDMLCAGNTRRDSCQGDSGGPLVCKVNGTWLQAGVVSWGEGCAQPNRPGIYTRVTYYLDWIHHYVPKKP

Chain of Chymotrypsin, from human pancreas (P17538 19-263): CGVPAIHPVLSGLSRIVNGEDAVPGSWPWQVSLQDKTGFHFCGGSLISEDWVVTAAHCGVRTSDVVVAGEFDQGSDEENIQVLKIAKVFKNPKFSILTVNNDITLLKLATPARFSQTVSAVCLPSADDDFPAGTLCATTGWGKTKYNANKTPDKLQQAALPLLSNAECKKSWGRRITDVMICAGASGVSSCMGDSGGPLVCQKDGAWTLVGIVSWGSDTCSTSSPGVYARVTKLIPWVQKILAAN
Chain of Coagulation Factor Xa, from human plasma (P00742 41-488 limits assumed): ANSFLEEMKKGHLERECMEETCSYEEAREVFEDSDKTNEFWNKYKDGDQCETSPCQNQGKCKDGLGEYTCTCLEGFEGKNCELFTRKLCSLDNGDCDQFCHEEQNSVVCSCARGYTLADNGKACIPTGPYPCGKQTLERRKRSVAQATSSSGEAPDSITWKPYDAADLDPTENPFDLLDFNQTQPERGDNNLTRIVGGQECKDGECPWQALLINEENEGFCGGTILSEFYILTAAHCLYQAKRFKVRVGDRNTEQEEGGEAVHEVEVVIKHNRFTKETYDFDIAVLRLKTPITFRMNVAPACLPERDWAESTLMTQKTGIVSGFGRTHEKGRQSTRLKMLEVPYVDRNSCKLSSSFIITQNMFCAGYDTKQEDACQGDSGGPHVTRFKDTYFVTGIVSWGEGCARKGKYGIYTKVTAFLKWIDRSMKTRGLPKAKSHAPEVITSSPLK

Binder | IC50 [1] | % inhibition at 100 µM [2] | % inhibition at 100 µM [3] | % inhibition at 100 µM [4] | % inhibition at 100 µM [5] | % inhibition at 100 µM [6] | % inhibition at 100 µM [7] | IC50 [8] | % inhibition at 100 µM [9]
B1 | 38 nmol | 60% | 11% | 9% | 0% | 90% | 4% | > 100000 nmol | 
cyclo(FCTK[AlloThr]DPPICS[dP]P) (disulfide 2-10) [Example 24] | 71 nmol | 1.2% | 30% | 5.1% | 3.5% | 97% | 1% | > 100000 nmol | 0%
B2 | 20200 nmol | 0% | 13.3% | 10.4% | 20.6% | 10.8% |  | 18 nmol | 4.2%
cyclo(ICTKSDPAICR[dP]P) (disulfide 2-10) [Example 14] | 52 nmol | 42.3% | 6% | 5.4% | 8.7% |  | 0% | > 100000 nmol | 84.2%
B3 | 86 nmol | 0% | 5.7% | 5.7% | 1.1% | 92.6% | 7.8% | > 100000 nmol | 0%
cyclo(ICTKSDPAICR[dP]P) (disulfide 2-10) [Example 52] | 52 nmol | 42.3% | 6% | 5.4% | 8.7% |  | 0% | > 100000 nmol | 84.2%
B4 |  |  | 15.3% |  |  |  | 72.9% | 18 nmol | 44.5%
B5 | 84 nmol | 0% | 5.3% | 0.9% | 9.2% | 92% | 2.9% | > 100000 nmol | 39.6%
B6 | 49 nmol | 0% | 6% | 3.1% | 3% | 84% | 2.2% | > 100000 nmol | 66.4%
